# In paper PMC6312627:
# pKd: −log10 of the molar value.
# Key:
# [1] = target: streptavidin-phycoerythrin (SA-PE) (UniProt P22629); experiment: bead-based flow cytometry; details: PBSMCT selection buffer (PBS with Mg2+, CaCl2, 0.01% Tween 20; full composition not in material), pH 7.4 or pH 5.2 (HCl); bead assays at RT, MST at 25 C with …
# streptavidin (MST) [2] = target: streptavidin (MST) (UniProt P22629); experiment: MST; details: PBSMCT selection buffer (PBS with Mg2+, CaCl2, 0.01% Tween 20; full composition not in material), pH 7.4 or pH 5.2 (HCl); bead assays at RT, MST at 25 C with …
# [3] = target: streptavidin-phycoerythrin (SA-PE) (UniProt P22629); experiment: bead-based flow cytometry; details: PBSMCT selection buffer (PBS with Mg2+, CaCl2, 0.01% Tween 20; full composition not in material), pH 7.4 or pH 5.2 (HCl); bead assays at RT, MST at 25 C with …; remark: listed apart in the source
# streptavidin (MST) [4] = target: streptavidin (MST) (UniProt P22629); experiment: MST; details: PBSMCT selection buffer (PBS with Mg2+, CaCl2, 0.01% Tween 20; full composition not in material), pH 7.4 or pH 5.2 (HCl); bead assays at RT, MST at 25 C with …; remark: listed apart in the source
# streptavidin (MST) [5] = target: streptavidin (MST) (UniProt P22629); experiment: cited; details: PBSMCT selection buffer (PBS with Mg2+, CaCl2, 0.01% Tween 20; full composition not in material), pH 7.4 or pH 5.2 (HCl); bead assays at RT, MST at 25 C with …; cited from earlier work
Sequence,binding signal (% reduction vs S8) [1],pKd [1],pKd (streptavidin (MST) [2]),other results
ATACCAGCTTATTCAATTATTGACCGCTGTGTGACGCAACACTCAATTCTTGGATCTCGCGGCACACAGATAGTAAGTGCAATCT [S8 G61],75,,,
ATACCAGCTTATTCAATTATTGACCGCTGTGTGACGCAACACTCAATTCTTGGATCTCGCTTCACACAGATAGTAAGTGCAATCT [S8 T62],65,,,
ATACCAGCTTATTCAATTATTGACCGCTGTGTGACGCAACACTCAATTCTTGGATCTCGCTGCACACAGATAGTAAGTGCAATCT [S8],,6.95,8.00,
ATTGACCGCTGTGTGACGCAACACTCAAT [SBA29],,7.98,8.21,pKd [3]: 8.46; pKd (streptavidin (MST) [4]): 7.57; pKd (streptavidin (MST) [5]): 7.40
ATACCAGCTTATTCAATTATTGACCGCTGTGTGACGCAACACTCAATACCTTCTCAACGTTCTCTGTAGATAGTAAGTGCAATCT [S3],,7.62,,
